3 molecules from patent US20210214458A1 (ONCOC4, published 2021) can be followed below.

Substitutions are numbered along the chain they refer to.

The target of one assay is T1, CD24-GST fusion protein.
T1 construct: also called biotinylated CD24-GST; not shown: GST (glutathione S-transferase) fusion partner
Briefly: ELISA on coated CD24-GST with expression media, relative to chimeric PP6373 (FIG. 28). Here is the method: To select the best working combination of HuVH and HuVL for CD24 binding, different combinations were co-transfected into 293 cells for 72 hrs. Two ELISAs are then performed with expression media. ELISA 1: a 96 well plate was coated with purified goat-anti-human polyclonal IgG (GAH) and, after blocking, expression media or purified control IgGs were added, and goat-anti-human IgG-HRP was used as detection antibody. ELISA 2: a 96 well plate was coated with CD24-GST protein and, after blocking, expression media or purified control IgGs were added, and goat-anti-human IgG-HRP was used as detection antibody.
Background: ELISA stands for enzyme-linked immunosorbent assay.

The target in assay [1] is T2, N-SA-CD24 (CD24 stripped of N-glycan and sialic acid modifications) (not fully specified; N-glycans and sialic acid removed; O-glycans present; biotinylated in the Jurkat bispecific assays).
T2 construct: also called SA-N-CD24; SA-N-
T2 chain: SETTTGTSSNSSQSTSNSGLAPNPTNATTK
As to the kind of experiment: ELISA titration on coated Fc removed CD24 treated with NanA + N-glycanase (FIG. 8).

B1: H1L3 (humanized PP6373) (antibody, V domains shown)
VH: EVQFVESGGGLVQPGGSLKLSCAASGVTFSEAWMDWVRQASGKGLEWVGEIRDKPNSYVTYYAESVKGRFTISRDDSKNTAYLQMNSLKTEDTAVYYCTGAMDYWGQGTLVTVSS
VL: DIVMTQTPLSLSVTIGQPASISCKSSQSLLYSNGKTYLNWLLQKPGQSPKRLIYQVSKLDPGIPDRFSGSGSETDFTLKISRVEAEDVGIYYCMQGSSLPWTFGGGTKVEIKR
notes: Tested as expression medium of co-transfected 293 cells
As to B1, the binding result with CD24-GST fusion protein was “binds”.

B2: H4L3 (humanized PP6373) (antibody, V domains shown)
VH: B1 VH with G49A, N79S, A81V, V95I
VL: B1 VL
notes: as for B1
Take B2: the binding result in the assay with CD24-GST fusion protein is given as “binds”.

B3: PP6373 (affinity matured chimeric anti-CD24 antibody) (antibody, human IgG1, kappa, V domains shown)
VH: EVKFEESGGGLVQPGGSIKLSCAASGVTFSEAWMDWVRQSPEKGLEWVAEIRDKPNSYVTYYAESVKGRFTISRDDSKSRVYLQMNNLRTEDTGIYYCTGAMDYWGQGTSVTVSS
VL: B1 VL with L42Q, K44R, V88L, V109L
notes: also called P3050.ComF1.2H1; H4069 + L4071
For the molecule B3, the “fold increase of binding against the parental antibody” value in assay [1] was ~100 fold.
